Where two headings read alike, the source gives them in different places.
B1: recombinant huMAb-anti-MSP10.2 (antibody, V domains shown)
VH: EVQLVESGGDLVKPGGSLRLSCVVSGFRISTSAMSWVRQVPGKGLEWVSDISESGGSKDYADSVRGRFTISRDTSKNTLYLQMNSLGADDTALYYCAKSVGYFDTSGYYRWDYFDSWGQGTLVTVSS
VL: EIVLTQSPDTLSLSPGETATLSCRASQTVRRNSLAWYQQKPGQAPRLLIYGASDRATGIPDRFSGSGFGTDFTLTVSGLEPEDFAVYYCQQYGTSPRTFGQGTKLEIK
notes: Same heavy chain as huMAb-anti-MSP10.1 with a different kappa light chain; Cloned and expressed like huMAb-anti-MSP10.1 (IgG1m17,1, kappa; N. benthamiana)
B2: recombinant huMAb-anti-MSP10.1 (antibody, V domains shown)
VH: B1 VH
VL: EIVLTQSPDILSLSPGERATLSCRASQALTAKYLAWYQQKPGQVPRLLIYGSSTRATGIPDRFRGSGSGTDFTLTISRLEPADSAVYYCQQYEDSPWTFGQGTKLEIK
notes: also called recombinant human anti MSP-10 antibody huMAb-anti-MSP10.1

Columns and labels:
dsRed [1] = biological target: T1, dsRed; assay: ELISA, coated antigen, goat anti-human IgG-AP, pNPP, absorbance at 405 nm
T1 construct: also called dsRed (horizontal lines)
T1 chain: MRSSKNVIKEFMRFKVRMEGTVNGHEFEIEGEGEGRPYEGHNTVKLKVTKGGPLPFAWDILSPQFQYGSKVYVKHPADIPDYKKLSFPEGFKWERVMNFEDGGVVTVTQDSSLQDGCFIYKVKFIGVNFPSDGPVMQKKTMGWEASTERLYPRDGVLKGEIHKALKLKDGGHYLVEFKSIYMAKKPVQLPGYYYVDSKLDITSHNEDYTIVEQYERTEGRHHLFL

dsRed [2] = biological target: T1, dsRed; assay: as above

Row | Binder | binding result (dsRed [1]) | binding result (dsRed [2])
1 | B1 | no binding (tested: 100 µg/ml) | –
2 | B2 | – | no binding (tested: 100 µg/ml)

Reference: US20150197562A1 (FRAUNHOFER GESELLSCHAFT ZUR FOERDERUNG DER ANGEWANDTEN …, published 2015)
